Experimental data as given in paper PMC10879016.

Experiments:
[1] = anti-Myc Western of HEK293T medium, IgG-normalised; conditions: glycan lost; control: MMRN1 WT-Myc
[2] = anti-Myc Western of medium, IgG-normalised; conditions: glycan lost; control: WT HEK293T cells

| Protein | expression_or_secretion [1] | expression_or_secretion [2] |
| --- | --- | --- |
| multimerin-1 (MMRN1): T216A (protein) parent chain: MKGARLFVLLSSLWSGGIGLNNSKHSWTIPEDGNSQKTMPSASVPPNKIQSLQILPTTRVMSAEIATTPEARTSEDSLLKSTLPPSETSAPAEGVRNQTLTSTEKAEGVVKLQNLTLPTNASIKFNPGAESVVLSNSTLKFLQSFARKSNEQATSLNTVGGTGGIGGVGGTGGVGNRAPRETYLSRGDSSSSQRTDYQKSNFETTRGKNWCAYVHTRLSPTVILDNQVTYVPGGKGPCGWTGGSCPQRSQKISNPVYRMQHKIVTSLDWRCCPGYSGPKCQLRAQEQQSLIHTNQAESHTAVGRGVAEQQQQQGCGDPEVMQKMTDQVNYQAMKLTLLQKKIDNISLTVNDVRNTYSSLEGKVSEDKSREFQSLLKGLKSKSINVLIRDIVREQFKIFQNDMQETVAQLFKTVSSLSEDLESTRQIIQKVNESVVSIAAQQKFVLVQENRPTLTDIVELRNHIVNVRQEMTLTCEKPIKELEVKQTHLEGALEQEHSRSILYYESLNKTLSKLKEVHEQLLSTEQVSDQKNAPAAESVSNNVTEYMSTLHENIKKQSLMMLQMFEDLHIQESKINNLTVSLEMEKESLRGECEDMLSKCRNDFKFQLKDTEENLHVLNQTLAEVLFPMDNKMDKMSEQLNDLTYDMEILQPLLEQGASLRQTMTYEQPKEAIVIRKKIENLTSAVNSLNFIIKELTKRHNLLRNEVQGRDDALERRINEYALEMEDGLNKTMTIINNAIDFIQDNYALKETLSTIKDNSEIHHKCTSDMETILTFIPQFHRLNDSIQTLVNDNQRYNFVLQVAKTLAGIPRDEKLNQSNFQKMYQMFNETTSQVRKYQQNMSHLEEKLLLTTKISKNFETRLQDIESKVTQTLIPYYISVKKGSVVTNERDQALQLQVLNSRFKALEAKSIHLSINFFSLNKTLHEVLTMCHNASTSVSELNATIPKWIKHSLPDIQLLQKGLTEFVEPIIQIKTQAALSNLTCCIDRSLPGSLANVVKSQKQVKSLPKKINALKKPTVNLTTVLIGRTQRNTDNIIYPEEYSSCSRHPCQNGGTCINGRTSFTCACRHPFTGDNCTIKLVEENALAPDFSKGSYRYAPMVAFFASHTYGMTIPGPILFNNLDVNYGASYTPRTGKFRIPYLGVYVFKYTIESFSAHISGFLVVDGIDKLAFESENINSEIHCDRVLTGDALLELNYGQEVWLRLAKGTIPAKFPPVTTFSGYLLYRT | decreases |  |
| multimerin-1 (MMRN1): T1055A (protein) parent chain: MKGARLFVLLSSLWSGGIGLNNSKHSWTIPEDGNSQKTMPSASVPPNKIQSLQILPTTRVMSAEIATTPEARTSEDSLLKSTLPPSETSAPAEGVRNQTLTSTEKAEGVVKLQNLTLPTNASIKFNPGAESVVLSNSTLKFLQSFARKSNEQATSLNTVGGTGGIGGVGGTGGVGNRAPRETYLSRGDSSSSQRTDYQKSNFETTRGKNWCAYVHTRLSPTVILDNQVTYVPGGKGPCGWTGGSCPQRSQKISNPVYRMQHKIVTSLDWRCCPGYSGPKCQLRAQEQQSLIHTNQAESHTAVGRGVAEQQQQQGCGDPEVMQKMTDQVNYQAMKLTLLQKKIDNISLTVNDVRNTYSSLEGKVSEDKSREFQSLLKGLKSKSINVLIRDIVREQFKIFQNDMQETVAQLFKTVSSLSEDLESTRQIIQKVNESVVSIAAQQKFVLVQENRPTLTDIVELRNHIVNVRQEMTLTCEKPIKELEVKQTHLEGALEQEHSRSILYYESLNKTLSKLKEVHEQLLSTEQVSDQKNAPAAESVSNNVTEYMSTLHENIKKQSLMMLQMFEDLHIQESKINNLTVSLEMEKESLRGECEDMLSKCRNDFKFQLKDTEENLHVLNQTLAEVLFPMDNKMDKMSEQLNDLTYDMEILQPLLEQGASLRQTMTYEQPKEAIVIRKKIENLTSAVNSLNFIIKELTKRHNLLRNEVQGRDDALERRINEYALEMEDGLNKTMTIINNAIDFIQDNYALKETLSTIKDNSEIHHKCTSDMETILTFIPQFHRLNDSIQTLVNDNQRYNFVLQVAKTLAGIPRDEKLNQSNFQKMYQMFNETTSQVRKYQQNMSHLEEKLLLTTKISKNFETRLQDIESKVTQTLIPYYISVKKGSVVTNERDQALQLQVLNSRFKALEAKSIHLSINFFSLNKTLHEVLTMCHNASTSVSELNATIPKWIKHSLPDIQLLQKGLTEFVEPIIQIKTQAALSNLTCCIDRSLPGSLANVVKSQKQVKSLPKKINALKKPTVNLTTVLIGRTQRNTDNIIYPEEYSSCSRHPCQNGGTCINGRTSFTCACRHPFTGDNCTIKLVEENALAPDFSKGSYRYAPMVAFFASHTYGMTIPGPILFNNLDVNYGASYTPRTGKFRIPYLGVYVFKYTIESFSAHISGFLVVDGIDKLAFESENINSEIHCDRVLTGDALLELNYGQEVWLRLAKGTIPAKFPPVTTFSGYLLYRT | decreases |  |
| multimerin-1 (MMRN1): POFUT2 KO (protein) parent chain: MKGARLFVLLSSLWSGGIGLNNSKHSWTIPEDGNSQKTMPSASVPPNKIQSLQILPTTRVMSAEIATTPEARTSEDSLLKSTLPPSETSAPAEGVRNQTLTSTEKAEGVVKLQNLTLPTNASIKFNPGAESVVLSNSTLKFLQSFARKSNEQATSLNTVGGTGGIGGVGGTGGVGNRAPRETYLSRGDSSSSQRTDYQKSNFETTRGKNWCAYVHTRLSPTVILDNQVTYVPGGKGPCGWTGGSCPQRSQKISNPVYRMQHKIVTSLDWRCCPGYSGPKCQLRAQEQQSLIHTNQAESHTAVGRGVAEQQQQQGCGDPEVMQKMTDQVNYQAMKLTLLQKKIDNISLTVNDVRNTYSSLEGKVSEDKSREFQSLLKGLKSKSINVLIRDIVREQFKIFQNDMQETVAQLFKTVSSLSEDLESTRQIIQKVNESVVSIAAQQKFVLVQENRPTLTDIVELRNHIVNVRQEMTLTCEKPIKELEVKQTHLEGALEQEHSRSILYYESLNKTLSKLKEVHEQLLSTEQVSDQKNAPAAESVSNNVTEYMSTLHENIKKQSLMMLQMFEDLHIQESKINNLTVSLEMEKESLRGECEDMLSKCRNDFKFQLKDTEENLHVLNQTLAEVLFPMDNKMDKMSEQLNDLTYDMEILQPLLEQGASLRQTMTYEQPKEAIVIRKKIENLTSAVNSLNFIIKELTKRHNLLRNEVQGRDDALERRINEYALEMEDGLNKTMTIINNAIDFIQDNYALKETLSTIKDNSEIHHKCTSDMETILTFIPQFHRLNDSIQTLVNDNQRYNFVLQVAKTLAGIPRDEKLNQSNFQKMYQMFNETTSQVRKYQQNMSHLEEKLLLTTKISKNFETRLQDIESKVTQTLIPYYISVKKGSVVTNERDQALQLQVLNSRFKALEAKSIHLSINFFSLNKTLHEVLTMCHNASTSVSELNATIPKWIKHSLPDIQLLQKGLTEFVEPIIQIKTQAALSNLTCCIDRSLPGSLANVVKSQKQVKSLPKKINALKKPTVNLTTVLIGRTQRNTDNIIYPEEYSSCSRHPCQNGGTCINGRTSFTCACRHPFTGDNCTIKLVEENALAPDFSKGSYRYAPMVAFFASHTYGMTIPGPILFNNLDVNYGASYTPRTGKFRIPYLGVYVFKYTIESFSAHISGFLVVDGIDKLAFESENINSEIHCDRVLTGDALLELNYGQEVWLRLAKGTIPAKFPPVTTFSGYLLYRT |  | no change |
| multimerin-1 (MMRN1): POFUT1 KO (protein) parent chain: MKGARLFVLLSSLWSGGIGLNNSKHSWTIPEDGNSQKTMPSASVPPNKIQSLQILPTTRVMSAEIATTPEARTSEDSLLKSTLPPSETSAPAEGVRNQTLTSTEKAEGVVKLQNLTLPTNASIKFNPGAESVVLSNSTLKFLQSFARKSNEQATSLNTVGGTGGIGGVGGTGGVGNRAPRETYLSRGDSSSSQRTDYQKSNFETTRGKNWCAYVHTRLSPTVILDNQVTYVPGGKGPCGWTGGSCPQRSQKISNPVYRMQHKIVTSLDWRCCPGYSGPKCQLRAQEQQSLIHTNQAESHTAVGRGVAEQQQQQGCGDPEVMQKMTDQVNYQAMKLTLLQKKIDNISLTVNDVRNTYSSLEGKVSEDKSREFQSLLKGLKSKSINVLIRDIVREQFKIFQNDMQETVAQLFKTVSSLSEDLESTRQIIQKVNESVVSIAAQQKFVLVQENRPTLTDIVELRNHIVNVRQEMTLTCEKPIKELEVKQTHLEGALEQEHSRSILYYESLNKTLSKLKEVHEQLLSTEQVSDQKNAPAAESVSNNVTEYMSTLHENIKKQSLMMLQMFEDLHIQESKINNLTVSLEMEKESLRGECEDMLSKCRNDFKFQLKDTEENLHVLNQTLAEVLFPMDNKMDKMSEQLNDLTYDMEILQPLLEQGASLRQTMTYEQPKEAIVIRKKIENLTSAVNSLNFIIKELTKRHNLLRNEVQGRDDALERRINEYALEMEDGLNKTMTIINNAIDFIQDNYALKETLSTIKDNSEIHHKCTSDMETILTFIPQFHRLNDSIQTLVNDNQRYNFVLQVAKTLAGIPRDEKLNQSNFQKMYQMFNETTSQVRKYQQNMSHLEEKLLLTTKISKNFETRLQDIESKVTQTLIPYYISVKKGSVVTNERDQALQLQVLNSRFKALEAKSIHLSINFFSLNKTLHEVLTMCHNASTSVSELNATIPKWIKHSLPDIQLLQKGLTEFVEPIIQIKTQAALSNLTCCIDRSLPGSLANVVKSQKQVKSLPKKINALKKPTVNLTTVLIGRTQRNTDNIIYPEEYSSCSRHPCQNGGTCINGRTSFTCACRHPFTGDNCTIKLVEENALAPDFSKGSYRYAPMVAFFASHTYGMTIPGPILFNNLDVNYGASYTPRTGKFRIPYLGVYVFKYTIESFSAHISGFLVVDGIDKLAFESENINSEIHCDRVLTGDALLELNYGQEVWLRLAKGTIPAKFPPVTTFSGYLLYRT |  | abolishes |
